{"source": "patent US20200216495A1", "about": "(ADRX, published 2020)", "note": "Values joined by “and” are separate entries in the source; they are usually repeats but may differ in a detail not shown here. Identical values can stand only once. Square brackets hold non-standard residues; d marks the D form. Ends that are not written are not given here. dNle = CCCC[C@@H](N)C(=O)O"}
{"target": "Tau40 P301L protein (human)", "assay": "cell-based or functional assay"}
{"binder": "[dL][dR][dI][dR][dI][dR][dF][dH]", "note": "[lririrfh (PEPTIDE ID NO: 152)]", "IC50, Tau40 assay (ThT)": "1410 nM and 1870 nM"}
{"binder": "[dF][dW][dR][dL][dK][dV][dR][dW]", "note": "[fwrlkvrw (PEPTIDE ID NO: 261)]", "IC50, Tau40 assay (ThT)": "1320 nM"}
{"binder": "[dW][dW][dR][dF][dH][dW][dR]", "note": "[wwrfhwr (PEPTIDE ID NO: 43)]", "IC50, Tau40 assay (ThT)": "1130 nM"}
{"binder": "[dW][dI][dK][dI][dR][dW]", "note": "[wikirw (PEPTIDE ID NO: 21)]", "IC50, Tau40 assay (ThT)": "1120 nM and 1210 nM"}
{"binder": "[dW][dR][dL][dR][dI][dH][dT]", "note": "[wrlriht (PEPTIDE ID NO: 262)]", "IC50, Tau40 assay (ThT)": "1330 nM"}
{"binder": "[dH][dW][dR][dL][dK][dV][dR][dW]", "note": "[hwrlkvrw (PEPTIDE ID NO: 266)]", "IC50, Tau40 assay (ThT)": "1420 nM"}
{"binder": "[dW][dL][dR][dV][dQ][dV][dK][dL][dW]", "note": "[wlrvqvklw (PEPTIDE ID NO: 416)]", "IC50, Tau40 assay (ThT)": "1110 nM"}
{"binder": "[dF][dR][dL][dR][dI][dH][dW]", "note": "[frlrihw (PEPTIDE ID NO: 270)]", "IC50, Tau40 assay (ThT)": "1200 nM and 1470 nM"}
{"binder": "[dW][dL][dK][dI][dR][dI][dH][dY]", "note": "[wlkirihy (PEPTIDE ID NO: 198)]", "IC50, Tau40 assay (ThT)": "690 nM"}
{"binder": "[dV][dR][dW][dW][dK][dL][dR][dW]", "note": "[vrwwklrw (PEPTIDE ID NO: 196)]", "IC50, Tau40 assay (ThT)": "680 nM"}
{"binder": "[dW][dK][dV][dW][dV][dR]G[dW] (not fully specified (residue 7); printed as wkvwvrgw)", "note": "[wkvwvrgw (PEPTIDE ID NO: 93)]", "IC50, Tau40 assay (ThT)": "1270 nM and 990 nM"}
{"binder": "[dF][dR][dI][dK][dL][dR][dW]", "note": "[friklrw (PEPTIDE ID NO: 47)]", "IC50, Tau40 assay (ThT)": "1370 nM and 1460 nM"}
{"binder": "[dW][dW][dR][dV][dK][dL][dR][dW]", "note": "[wwrvklrw (PEPTIDE ID NO: 195)]", "IC50, Tau40 assay (ThT)": "660 nM"}
{"binder": "[dL][dR][dI][dR][dI][dK][dH][dY]", "note": "[lririkhy (PEPTIDE ID NO: 145)]", "IC50, Tau40 assay (ThT)": "1190 nM and 1100 nM"}
{"binder": "[dF][dR][dI][dR][dI][dH][dH][dW]", "note": "[fririhhw (PEPTIDE ID NO: 115)]", "IC50, Tau40 assay (ThT)": "1240 nM and 1310 nM"}
{"binder": "[dW][dR][dL][dK][dV][dR][dW][dL]", "note": "[wrlkvrwl (PEPTIDE ID NO: 197)]", "IC50, Tau40 assay (ThT)": "680 nM"}
{"binder": "[dR][dW][dR][dW][dR][dW]", "note": "[rwrwrw (PEPTIDE ID NO: 17)]", "IC50, Tau40 assay (ThT)": "1460 nM"}
{"binder": "[dR][dI][dR][dI][dR][dW]", "note": "[ririrw (PEPTIDE ID NO: 75)]", "IC50, Tau40 assay (ThT)": "1470 nM and 710 nM"}
{"binder": "[dF][dK][dL][dK][dL][dR][dH][dW]", "note": "[fklklrhw (PEPTIDE ID NO: 125)]", "IC50, Tau40 assay (ThT)": "1340 nM and 1360 nM"}
{"binder": "[dF][dR][dL][dR][dI][dW][dW]", "note": "[frlriww (PEPTIDE ID NO: 423)]", "IC50, Tau40 assay (ThT)": "1410 nM"}
{"binder": "[dW][dE][dL][dK][dV][dR][dW][dW]", "note": "[welkvrww (PEPTIDE ID NO: 264)]", "IC50, Tau40 assay (ThT)": "1390 nM"}
{"binder": "[dF][dK][dL][dH][dL][dR][dH][dW]", "note": "[fklhlrhw (PEPTIDE ID NO: 126)]", "IC50, Tau40 assay (ThT)": "1390 nM and 1510 nM"}
{"binder": "[dW][dK][dL][dW][dL][dR][dW] (not fully specified; printed as wklwlrw)", "note": "[wklwlrw (PEPTIDE ID NO: 91)]", "IC50, Tau40 assay (ThT)": "650 nM and 1020 nM"}
{"binder": "[dH][dL][dK][dI][dR][dI][dH][dY]", "note": "[hlkirihy (PEPTIDE ID NO: 259)]", "IC50, Tau40 assay (ThT)": "1250 nM"}
{"binder": "[dM][dR][dL][dK][dV][dR][dW]", "note": "[mrlkvrw (PEPTIDE ID NO: 254)]", "IC50, Tau40 assay (ThT)": "1170 nM and 1570 nM"}
{"binder": "[dW][dR][dL][dW][dI][dH][dW]", "note": "[wrlwihw (PEPTIDE ID NO: 428)]", "IC50, Tau40 assay (ThT)": "1290 nM"}
{"binder": "[dF][dR][dL][dK][dI][dR][dH][dW]", "note": "[frlkirhw (PEPTIDE ID NO: 117)]", "IC50, Tau40 assay (ThT)": "1150 nM and 1200 nM"}
{"binder": "[dY][dL][dK][dI][dR][dI][dH][dY]", "note": "[ylkirihy (PEPTIDE ID NO: 256)]", "IC50, Tau40 assay (ThT)": "1190 nM"}
{"binder": "[dF][dR][dL][dK][dL][dR][dH][dW]", "note": "[frlklrhw (PEPTIDE ID NO: 116)]", "IC50, Tau40 assay (ThT)": "1240 nM"}
{"binder": "[dW][dH][dL][dR][dL][dR][dH][dW]", "note": "[whlrlrhw (PEPTIDE ID NO: 109)]", "IC50, Tau40 assay (ThT)": "1190 nM"}
{"binder": "[dR][dI][dK][dI][dR][dW]", "note": "[rikirw (PEPTIDE ID NO: 26)]", "IC50, Tau40 assay (ThT)": "1400 nM and 1490 nM"}
{"binder": "[dE][dL][dK][dI][dR][dI][dH][dY]", "note": "[elkirihy (PEPTIDE ID NO: 253)]", "IC50, Tau40 assay (ThT)": "1160 nM"}
{"binder": "[dF][dW][dL][dK][dL][dR][dW][dF]", "note": "[fwlklrwf (PEPTIDE ID NO: 15)]", "IC50, Tau40 assay (ThT)": "1380 nM and 2080 nM"}
{"binder": "[dL][dK][dI][dR][dI][dR][dY][dH]", "note": "[lkiriryh (PEPTIDE ID NO: 194)]", "IC50, Tau40 assay (ThT)": "650 nM and 850 nM"}
{"binder": "[dL][dK][dI][dR][dL][dH][dH][dW]", "note": "[lkirlhhw (PEPTIDE ID NO: 143)]", "IC50, Tau40 assay (ThT)": "1420 nM and 1070 nM"}
{"binder": "[dL][dK][dI][dR][dI][dH][dY][dA]", "note": "[lkirihya (PEPTIDE ID NO: 269)]", "IC50, Tau40 assay (ThT)": "1450 nM"}
{"binder": "[dW][dA][dL][dK][dV][dR][dW]", "note": "[walkvrw (PEPTIDE ID NO: 257)]", "IC50, Tau40 assay (ThT)": "1250 nM"}
{"binder": "[dW][dR][dL][dR][dM][dH][dW]", "note": "[wrlrmhw (PEPTIDE ID NO: 260)]", "IC50, Tau40 assay (ThT)": "1280 nM"}
{"binder": "[dW][dR][dL][dK][dT][dR][dW]", "note": "[wrlktrw (PEPTIDE ID NO: 255)]", "IC50, Tau40 assay (ThT)": "1170 nM"}
{"binder": "[dW][dR][dL][dK][dF][dR][dW]", "note": "[wrlkfrw (PEPTIDE ID NO: 263)]", "IC50, Tau40 assay (ThT)": "1360 nM"}
{"binder": "[dF][dR][dI][dR][dI][dK][dH][dY]", "note": "[fririkhy (PEPTIDE ID NO: 114)]", "IC50, Tau40 assay (ThT)": "1120 nM and 1150 nM"}
{"binder": "[dL][dK][dI][dR][dI][dNle][dY]", "note": "[lkiriuy (PEPTIDE ID NO: 251)]", "IC50, Tau40 assay (ThT)": "1120 nM"}
{"binder": "[dF][dH][dI][dR][dI][dR][dH][dW]", "note": "[fhirirhw (PEPTIDE ID NO: 138)]", "IC50, Tau40 assay (ThT)": "1260 nM and 1310 nM"}
{"binder": "[dF][dR][dV][dR][dI][dR][dH][dW]", "note": "[frvrirhw (PEPTIDE ID NO: 118)]", "IC50, Tau40 assay (ThT)": "1310 nM"}
{"binder": "[dL][dK][dI][dR][dI][dH][dY][dF]", "note": "[lkirihyf (PEPTIDE ID NO: 250)]", "IC50, Tau40 assay (ThT)": "1110 nM"}
{"binder": "[dH][dR][dL][dK][dV][dR][dW][dW]", "note": "[hrlkvrww (PEPTIDE ID NO: 265)]", "IC50, Tau40 assay (ThT)": "1410 nM"}
{"binder": "[dL][dK][dI][dH][dI][dR][dH][dW]", "note": "[lkihirhw (PEPTIDE ID NO: 148)]", "IC50, Tau40 assay (ThT)": "1290 nM and 1390 nM"}
{"binder": "[dF][dK][dI][dH][dL][dR][dH][dW]", "note": "[fkihlrhw (PEPTIDE ID NO: 124)]", "IC50, Tau40 assay (ThT)": "1340 nM"}
{"binder": "[dF][dR][dI][dR][dL][dR][dW]", "note": "[frirlrw (PEPTIDE ID NO: 56)]", "IC50, Tau40 assay (ThT)": "1460 nM"}
{"binder": "[dW][dR][dL][dR][dI][dH][dW][dW]", "note": "[wrlrihww (PEPTIDE ID NO: 20)]", "IC50, Tau40 assay (ThT)": "1290 nM and 1110 nM"}
{"binder": "[dY][dR][dV][dR][dI][dE][dW][dL]", "note": "[yrvriewl (PEPTIDE ID NO: 159)]", "IC50, Tau40 assay (ThT)": "1270 nM and 1430 nM"}
{"binder": "[dL][dK][dI][dR][dI][dH][dY][dH]", "note": "[lkirihyh (PEPTIDE ID NO: 147)]", "IC50, Tau40 assay (ThT)": "1250 nM and 670 nM"}
{"binder": "[dR][dL][dK][dI][dR][dW]", "note": "[rlkirw (PEPTIDE ID NO: 23)]", "IC50, Tau40 assay (ThT)": "1210 nM and 1680 nM"}
{"binder": "[dL][dH][dL][dK][dI][dR][dY][dH]", "note": "[lhlkiryh (PEPTIDE ID NO: 410)]", "IC50, Tau40 assay (ThT)": "1160 nM"}
{"binder": "[dL][dR][dI][dR][dL][dH][dH][dF]", "note": "[lrirlhhf (PEPTIDE ID NO: 146)]", "IC50, Tau40 assay (ThT)": "1220 nM and 1540 nM"}
{"binder": "[dY][dW][dR][dL][dK][dV][dR][dW]", "note": "[ywrlkvrw (PEPTIDE ID NO: 268)]", "IC50, Tau40 assay (ThT)": "1430 nM"}
